Data from doi:10.1101/750265.

Molecular target: dominant negative RACB-T20N, split-YFP fusion for BiFC (barley (Hordeum vulgare))
Experiment: split reporter

“RIPb, full length, split-YFP fusion for BiFC (natural protein)” was tested, and the BiFC signal relative to that with CA RACB was < 10%.
